± gives the standard deviation of the averaged measurements.
Assays:
[1] = test system: Saccharomyces cerevisiae; assay: protein stability index of tFT-peptide fusion (C-terminal peptide) (PSI (0-1 scale)); higher = more stable (slower turnover)
Procedure: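 MPS profiling in S. cerevisiae of the tFT-X12 degron library: putative degron peptides plus stable controls, 12 aa, fused to the C-terminus of a sfGFP-mCherry timer. Cells are FACS-sorted into 8 mCherry/sfGFP bins and deep-sequenced. PSI runs from 0 (unstable) to 1 (stable). Backgrounds are wild type, das1Δ and doa10Δ at 30 °C, and wild type, das1Δ, cdc34-1 and cdc53-1 at 37 °C; 2-3 technical replicates each.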

[2] = test system: Saccharomyces cerevisiae; assay: as above; conditions: genetic background: wild type; temperature: 30 C
[3] = genetic background: cdc34-1, temperature: 37 C
[4] = genetic background: cdc53-1, temperature: 37 C
[5] = genetic background: das1 deletion, temperature: 30 C
[6] = genetic background: das1 deletion, temperature: 37 C
[7] = genetic background: doa10 deletion, temperature: 30 C
[8] = genetic background: wild type, temperature: 30 C
[9] = genetic background: wild type, temperature: 37 C
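Also: PSI is a weighted mean of sequencing reads over stability bins, variants kept only with over 10 reads, mCherry proximal and sfGFP distal, peptide attached via GGGS linker.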

Sequence	protein stability index [1, 3]	protein stability index [1, 4]	protein stability index [1, 5]	protein stability index [1, 6]	protein stability index [1, 7]	protein stability index [1, 8]	protein stability index [1, 9]	protein stability index [2]
WLGCVLIGWHVL	0.355 ± 0.0098	0.413 ± 0.0055	0.288 ± 0.048	0.481 ± 0.01	0.169 ± 0.0054	0.19 ± 0.017	0.364 ± 0.052	0.27 ± 0.011
WLKLWSYVTHLG	0.66 ± 0.047	0.723 ± 0.0092	0.632 ± 0.025	0.717 ± 0.022	0.303 ± 0.0094	0.346 ± 0.021	0.581 ± 0.017	0.477 ± 0.036
WSLRFRRMMLRC	0.3765 ± 0.00088	0.425 ± 0.0072	0.429 ± 0.028	0.534 ± 0.0069	0.137 ± 0.0015	0.127 ± 0.026	0.16 ± 0.024	0.283 ± 0.015
WVVVARIFSVFF	0.484 ± 0.014	0.561 ± 0.02	0.445 ± 0.0061	0.57 ± 0.0013	0.308 ± 0.011	0.35 ± 0.018	0.469 ± 0.038	0.515 ± 0.12
WVVVKITAHTAT	0.323 ± 0.028	0.38 ± 0.021	0.22 ± 0.02	0.405 ± 0.018	0.185 ± 0.0081	0.222 ± 0.021	0.4 ± 0.0065	0.326 ± 0.016
WYAGIVFTRVWM	0.54 ± 0.01	0.611 ± 0.026	0.487 ± 0.015	0.654 ± 0.03	0.466 ± 0.015	0.482 ± 0.02	0.622 ± 0.013	0.5 ± 0.0095
YAFLWCVFYLSF	0.228 ± 0.0071	0.235 ± 0.03	0.222 ± 0.028	0.337 ± 0.01	0.216 ± 0.0098	0.196 ± 0.017	0.305 ± 0.0082	0.289 ± 0.021
YCCDYFMFVLVV	0.148 ± 0.0029	0.189 ± 0.024	0.206 ± 0.044	0.3012 ± 0.0022	0.184 ± 0.009	0.183 ± 0.032	0.248 ± 0.01	0.255 ± 0.033
YDLRRIGRIGVG	0.316 ± 0.02	0.404 ± 0.012	0.348 ± 0.019	0.402 ± 0.016	0.3542 ± 0.003	0.338 ± 0.0099	0.381 ± 0.026	0.363 ± 0.016
YFIVVSWFLVCW	0.0981 ± 0.019	0.199 ± 0.022	0.114 ± 0.029	0.218 ± 0.0028	0.072 ± 0.017	0.121 ± 0.0079	0.168 ± 0.029	0.184 ± 0.005
YFLFRYIVITVF	0.0486 ± 0.029	0.0672 ± 0.021	0.0711 ± 0.025	0.135 ± 0.026	0.0326 ± 0.015	0.0569 ± 0.012	0.06947 ± 0.00069	0.0865 ± 0.032
YFRKDYRKMAQH	0.594 ± 0.049	0.74478 ± 0.00072	0.669 ± 0.06	0.7429 ± 0.0026	0.17256 ± 0.00013	0.163 ± 0.046	0.453 ± 0.055	0.255 ± 0.15
YGAGDLTKYFIV	0.637 ± 0.037	0.684 ± 0.046	0.607 ± 0.0086	0.726 ± 0.039	0.114 ± 0.0065	0.122 ± 0.028	0.174 ± 0.034	0.106 ± 0.016
YHFRLLVTCCPC	0.273 ± 0.0031	0.325 ± 0.0097	0.264 ± 0.016	0.38 ± 0.01	0.225 ± 0.0037	0.257 ± 0.0088	0.351 ± 0.015	0.321 ± 0.0033
YLCCFSVAFFLG	0.175 ± 0.0039	0.331 ± 0.098	0.206 ± 0.039	0.3961 ± 0.00067	0.131 ± 4.8e-05	0.153 ± 0.018	0.317 ± 0.024	0.257 ± 0.072
YLFDQYDWYKSM	0.643 ± 0.063	0.7663 ± 0.007	0.666 ± 0.041	0.8049 ± 0.0067	0.156 ± 0.0072	0.162 ± 0.027	0.348 ± 0.02	0.368 ± 0.081
YLLTAFLSAFNP	0.554 ± 0.054	0.683 ± 0.018	0.543 ± 0.019	0.55 ± 0.0074	0.529 ± 0.041	0.522 ± 0.031	0.537 ± 0.02	0.495 ± 0.11
YLMVSKMSLRIG	0.602 ± 0.021	0.643 ± 0.0084	0.532 ± 0.021	0.609 ± 0.017	0.296 ± 0.054	0.306 ± 0.026	0.516 ± 0.025	0.401 ± 0.0052
YPGMFLQLVWWI	0.4297 ± 0.0022	0.552 ± 0.036	0.433 ± 0.03	0.5804 ± 0.0042	0.1211 ± 0.0011	0.117 ± 0.0026	0.126 ± 0.0019	0.176 ± 0.026
YPSASLLPLFSC	0.594 ± 0.06	0.733 ± 0.017	0.622 ± 0.014	0.748 ± 0.015	0.126 ± 0.018	0.136 ± 0.017	0.184 ± 0.016	0.171 ± 0.004
YQFDGLVFLRLS	0.716 ± 0.02	0.724 ± 0.0064	0.645 ± 0.014	0.774 ± 0.018	0.3501 ± 0.0014	0.4 ± 0.017	0.6515 ± 0.00071	0.4808 ± 0.0011
YRFVWRWIPICA	0.0342 ± 0.01	0.0919 ± 0.045	0.12 ± 0.038	0.116 ± 0.032	0.0307 ± 0.0093	0.038 ± 0.014	0.057 ± 0.026	0.0631 ± 0.022
YRWERIYIGLRL	0.397 ± 0.037	0.523 ± 0.036	0.49 ± 0.039	0.615 ± 0.019	0.191 ± 0.008	0.188 ± 0.018	0.36 ± 0.0093	0.291 ± 0.024
YSALHNPPQPVT	0.665 ± 0.032	0.725 ± 0.014	0.6556 ± 0.0065	0.7216 ± 0.0049	0.658 ± 0.014	0.658 ± 0.011	0.6971 ± 0.0062	0.736 ± 0.02
YTLWFLAWGLVF	0.262 ± 0.036	0.308 ± 0.016	0.241 ± 0.033	0.3865 ± 0.0028	0.209 ± 0.011	0.22 ± 0.034	0.36 ± 0.025	0.315 ± 0.023
YWRNYLVLVCKF	0.836 ± 0.04	0.794 ± 0.075	0.592 ± 0.023	0.778 ± 0.023	0.487 ± 0.07	0.481 ± 0.046	0.613 ± 0.024	0.359 ± 0.065
YYLHFRFFIYVF	0.0536 ± 0.019	0.0916 ± 0.0088	0.108 ± 0.035	0.201 ± 0.0051	0.0759 ± 0.019	0.0626 ± 0.013	0.13 ± 0.0084	0.113 ± 0.031

— the supplement of paper PMC10724198
